The target of the assay is MBP-M18BP1^1-140-8His (Homo sapiens (Human), UniProt Q6P0N0). Briefly: amylose-resin pull-down, CBB-stained gel; Mis18β Yippee domain alone does not bind; binding requires the Mis18α:Mis18β Yippee heterodimer (Mis18α Yippee domain present).
Chain of MBP-M18BP1^1-140-8His (Q6P0N0 1-140, one chain of several): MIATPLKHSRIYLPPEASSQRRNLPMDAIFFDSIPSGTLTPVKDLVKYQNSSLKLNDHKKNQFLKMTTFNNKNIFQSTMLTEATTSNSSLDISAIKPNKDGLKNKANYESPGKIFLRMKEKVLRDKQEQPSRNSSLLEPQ

B1: 6His-Mis18β^73-189 (protein)
chain: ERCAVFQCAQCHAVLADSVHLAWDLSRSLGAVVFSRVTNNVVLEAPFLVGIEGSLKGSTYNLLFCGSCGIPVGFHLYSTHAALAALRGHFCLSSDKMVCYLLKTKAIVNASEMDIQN
For B1, the binding result was “no binding”.

Values taken from article PMC5245964 (2017).
